Reference: patent publication US20260193317A1, “COMBINATION THERAPY WITH ACTRIIB RECEPTOR VARIANTS AND GLP-1 AGONISTS” (35PHARMA Inc., priority 2023, published 2026)
Read-outs that look alike come from different tables or passages of the source. Each block holds one compound with its values, some of them ahead of it.

Experiments:
[1] = Co-formulation study of ectodomain-based traps with incretin mimetics (monomer content by SEC / RP-HPLC, integrity, stability); type: physicochemical; details: retatrutide formulations, 20 mM NaPO4, glycine, sucrose, histidine pH 7.5
Procedure: In each case, the following parameters were assessed: a) monomer content (size exclusion chromatography), b) activin A and GDF-8 neutralization (cell-based assays [CBAs]), c) activin A binding (ELISA), d) GLP-1 receptor binding (ELISA).
In each case, the following parameters were assessed: a) monomer content (size exclusion chromatography), b) activin A and GDF-8 neutralization (cell-based assays [CBAs]), and c) GLP-1 receptor activation (CBA).
Given that protein aggregation can be indicative of reduced conformational stability and decreased activity, Size-Exclusion Chromatography-High Performance Liquid Chromatography (SEC-HPLC) was used to determine the purity of each ActRIIB-ECD construct. This method measured the percentage of intact monomeric species as well as the presence of aggregates and/or degradation products.
In some instances, the method used to assess the purity of an agent was based on a reversed-phase high-performance liquid chromatography (RP-HPLC) setup with a C18 column. The mobile phases consisted of acetonitrile with 0.1% formic acid (organic phase) and water with 0.1% formic acid (aqueous phase). […] Formic acid anions form an ion pair with positively charged peptides, increasing their hydrophobicity and therefore their retention time. Detection was performed using a UV detector, at 280 nm.

[2] = target: GLP-1 receptor (GLP-1R) on CHO-K1 cells stably overexpressing GLP-1R (UniProt P43220); test: cell-based or functional assay
Sequence of GLP-1 receptor (GLP-1R) on CHO-K1 cells stably overexpressing GLP-1R (P43220 24-463 limits assumed): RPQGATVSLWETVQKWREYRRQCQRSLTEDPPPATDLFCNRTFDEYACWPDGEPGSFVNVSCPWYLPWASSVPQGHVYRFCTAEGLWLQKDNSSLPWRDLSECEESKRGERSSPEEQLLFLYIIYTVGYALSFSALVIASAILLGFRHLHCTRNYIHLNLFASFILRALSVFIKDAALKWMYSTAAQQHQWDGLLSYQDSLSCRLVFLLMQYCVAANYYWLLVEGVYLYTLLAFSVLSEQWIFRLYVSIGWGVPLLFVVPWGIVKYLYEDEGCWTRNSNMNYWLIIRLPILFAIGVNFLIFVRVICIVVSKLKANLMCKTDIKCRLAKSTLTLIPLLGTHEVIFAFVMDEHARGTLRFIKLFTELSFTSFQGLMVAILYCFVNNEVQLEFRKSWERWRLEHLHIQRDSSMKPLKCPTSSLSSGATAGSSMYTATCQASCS

[3] = target: T1, GIP receptor (GIPR) on CHO-K1 cells stably overexpressing GIPR (UniProt P48546); test: cell-based or functional assay
T1 sequence (looked up): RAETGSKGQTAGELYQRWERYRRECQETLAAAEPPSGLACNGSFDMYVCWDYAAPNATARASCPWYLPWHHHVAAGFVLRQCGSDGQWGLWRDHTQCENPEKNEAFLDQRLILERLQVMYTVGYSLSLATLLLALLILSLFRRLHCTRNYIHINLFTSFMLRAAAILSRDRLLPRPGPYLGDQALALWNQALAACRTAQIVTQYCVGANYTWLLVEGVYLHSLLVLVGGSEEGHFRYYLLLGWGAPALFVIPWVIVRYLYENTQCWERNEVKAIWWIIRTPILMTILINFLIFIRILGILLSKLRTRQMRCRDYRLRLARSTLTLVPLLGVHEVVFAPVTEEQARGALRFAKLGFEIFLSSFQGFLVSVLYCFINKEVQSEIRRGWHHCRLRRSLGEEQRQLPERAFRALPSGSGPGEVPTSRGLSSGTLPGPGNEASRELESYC

[4] = target: GLP-1 receptor (GLP-1R) on CHO-K1 cells stably overexpressing GLP-1R (UniProt P43220); test: cell-based or functional assay; remark: listed apart in the source
[5] = target: T1, GIP receptor (GIPR) on CHO-K1 cells stably overexpressing GIPR; test: cell-based or functional assay; remark: listed apart in the source
DIO mice = test: Body composition in high fat diet mice, alone and in combination with incretin mimetics; type: in vivo; details: for Fat mass (% change from baseline) / Lean mass (% change from baseline): as E44, NMR
Procedure: Experiments were performed in vivo to investigate the potential for additive or synergistic effects between exemplary ActRIIB-ECD polypeptide constructs and incretin mimetics.

Compound: CC[C@H](C)[C@H](NC(=O)[C@H](Cc1ccccc1)NC(=O)[C@H](C)NC(=O)C(C)(C)NC(=O)[C@H](CCC(N)=O)NC(=O)[C@H](C)NC(=O)[C@H](CCCCNC(=O)COCCOCCNC(=O)CC[C@H](NC(=O)CCCCCCCCCCCCCCCCCCC(=O)O)C(=O)O)NC(=O)[C@H](CCCCN)NC(=O)[C@H](CC(=O)O)NC(=O)[C@H](CC(C)C)NC(=O)[C@](C)(CC(C)C)NC(=O)[C@@H](NC(=O)[C@H](CO)NC(=O)[C@H](Cc1ccc(O)cc1)NC(=O)[C@H](CC(=O)O)NC(=O)[C@H](CO)NC(=O)[C@@H](NC(=O)[C@H](Cc1ccccc1)NC(=O)[C@@H](NC(=O)CNC(=O)[C@H](CCC(N)=O)NC(=O)C(C)(C)NC(=O)[C@@H](N)Cc1ccc(O)cc1)[C@@H](C)O)[C@@H](C)O)[C@@H](C)CC)C(=O)N[C@@H](CCC(=O)O)C(=O)N[C@@H](Cc1ccc(O)cc1)C(=O)N[C@@H](CC(C)C)C(=O)N[C@@H](CC(C)C)C(=O)N[C@@H](CCC(=O)O)C(=O)NCC(=O)NCC(=O)N1CCC[C@H]1C(=O)N[C@@H](CO)C(=O)N[C@@H](CO)C(=O)NCC(=O)N[C@@H](C)C(=O)N1CCC[C@H]1C(=O)N1CCC[C@H]1C(=O)N1CCC[C@H]1C(=O)N[C@@H](CO)C(N)=O [Retatrutide alone]
Monomer Content (%) Retatrutide ([1]; D 0): 100%
Monomer Content (%) Retatrutide ([1]; D 7, 2-8° C.): 100%
Monomer Content (%) Retatrutide ([1]; D 7, RT): 100%
Monomer Content (%) Retatrutide ([1]; D 14, 2-8° C.): 100%
Monomer Content (%) Retatrutide ([1]; D 14, RT): 100%
Monomer Content (%) Retatrutide ([1]; D 28, 2-8° C.): 100%
Monomer Content (%) Retatrutide ([1]; D 28, RT): 100%
Monomer Content (%) Retatrutide ([1]; D 56, 2-8° C.): 100%
Monomer Content (%) Retatrutide ([1]; D 56, RT): 100%

CBA potency GLP-1R; P1372 + retatrutide; D 0 [2]: 3 pM
CBA potency GLP-1R; P1372 + retatrutide; D 7 2-8°C [2]: 2 pM
CBA potency GLP-1R; P1372 + retatrutide; D 7 RT [2]: 1.8 pM
CBA potency GLP-1R; P1372 + retatrutide; D 14 2-8°C [2]: 4.1 pM
CBA potency GLP-1R; P1372 + retatrutide; D 14 RT [2]: 3.3 pM
CBA potency GLP-1R; P1372 + retatrutide; D 28 2-8°C [2]: 2.9 pM
CBA potency GLP-1R; P1372 + retatrutide; D 28 RT [2]: 2.1 pM
CBA potency GLP-1R; P1372 + retatrutide; D 56 2-8°C [2]: 2.3 pM
CBA potency GLP-1R; P1372 + retatrutide; D 56 RT [2]: 2.3 pM
CBA potency GLP-1R; Retatrutide alone; D 0 [2]: 3 pM
CBA potency GLP-1R; Retatrutide alone; D 7 2-8°C [2]: 1.8 pM
CBA potency GLP-1R; Retatrutide alone; D 7 RT [2]: 2.5 pM
CBA potency GLP-1R; Retatrutide alone; D 14 2-8°C [2]: 3.1 pM
CBA potency GLP-1R; Retatrutide alone; D 14 RT [2]: 5.6 pM
CBA potency GLP-1R; Retatrutide alone; D 28 2-8°C [2]: 2.7 pM
CBA potency GLP-1R; Retatrutide alone; D 28 RT [2]: 2.7 pM
CBA potency GLP-1R; Retatrutide alone; D 56 2-8°C [2]: 2.1 pM
CBA potency GLP-1R; Retatrutide alone; D 56 RT [2]: 1.9 pM
CBA potency GIPR; P1372 + retatrutide; D 0 [3]: 0.94 pM
CBA potency GIPR; P1372 + retatrutide; D 7 2-8°C [3]: 0.98 pM
CBA potency GIPR; P1372 + retatrutide; D 7 RT [3]: 0.98 pM
CBA potency GIPR; P1372 + retatrutide; D 14 2-8°C [3]: 1.1 pM
CBA potency GIPR; P1372 + retatrutide; D 14 RT [3]: 0.76 pM
CBA potency GIPR; P1372 + retatrutide; D 28 2-8°C [3]: 1 pM
CBA potency GIPR; P1372 + retatrutide; D 28 RT [3]: 0.84 pM
CBA potency GIPR; P1372 + retatrutide; D 56 2-8°C [3]: 0.85 pM
CBA potency GIPR; P1372 + retatrutide; D 56 RT [3]: 0.75 pM
CBA potency GIPR; Retatrutide alone; D 0 [3]: 0.74 pM
CBA potency GIPR; Retatrutide alone; D 7 2-8°C [3]: 1 pM
CBA potency GIPR; Retatrutide alone; D 7 RT [3]: 0.87 pM
CBA potency GIPR; Retatrutide alone; D 14 2-8°C [3]: 1 pM
CBA potency GIPR; Retatrutide alone; D 14 RT [3]: 1.2 pM
CBA potency GIPR; Retatrutide alone; D 28 2-8°C [3]: 1.1 pM
CBA potency GIPR; Retatrutide alone; D 28 RT [3]: 1.1 pM
CBA potency GIPR; Retatrutide alone; D 56 2-8°C [3]: 0.84 pM
CBA potency GIPR; Retatrutide alone; D 56 RT [3]: 0.82 pM
Compound: retatrutide (peptide)

Compound: tirzepatide (peptide)
CBA potency GLP-1R; P1372 + tirzepatide; D 0 [4]: 5.3 pM
CBA potency GLP-1R; P1372 + tirzepatide; D 7 2-8°C [4]: 3.2 pM
CBA potency GLP-1R; P1372 + tirzepatide; D 7 RT [4]: 3.3 pM
CBA potency GLP-1R; P1372 + tirzepatide; D 14 2-8°C [4]: 2.9 pM
CBA potency GLP-1R; P1372 + tirzepatide; D 14 RT [4]: 2.8 pM
CBA potency GLP-1R; P1372 + tirzepatide; D 28 2-8°C [4]: 5.5 pM
CBA potency GLP-1R; P1372 + tirzepatide; D 28 RT [4]: 5.4 pM
CBA potency GLP-1R; P1372 + tirzepatide; D 56 2-8°C [4]: 9.3 pM
CBA potency GLP-1R; P1372 + tirzepatide; D 56 RT [4]: 10 pM
CBA potency GLP-1R; Tirzepatide alone; D 0 [4]: 4.3 pM
CBA potency GLP-1R; Tirzepatide alone; D 7 2-8°C [4]: 4.6 pM
CBA potency GLP-1R; Tirzepatide alone; D 7 RT [4]: 3.7 pM
CBA potency GLP-1R; Tirzepatide alone; D 14 2-8°C [4]: 2.4 pM
CBA potency GLP-1R; Tirzepatide alone; D 14 RT [4]: 3.3 pM
CBA potency GLP-1R; Tirzepatide alone; D 28 2-8°C [4]: 5.6 pM
CBA potency GLP-1R; Tirzepatide alone; D 28 RT [4]: 5 pM
CBA potency GLP-1R; Tirzepatide alone; D 56 2-8°C [4]: 8.3 pM
CBA potency GLP-1R; Tirzepatide alone; D 56 RT [4]: 8.4 pM
CBA potency GIPR; P1372 + tirzepatide; D 0 [5]: 1.3 pM
CBA potency GIPR; P1372 + tirzepatide; D 7 2-8°C [5]: 1 pM
CBA potency GIPR; P1372 + tirzepatide; D 7 RT [5]: 0.99 pM
CBA potency GIPR; P1372 + tirzepatide; D 14 2-8°C [5]: 0.98 pM
CBA potency GIPR; P1372 + tirzepatide; D 14 RT [5]: 1 pM
CBA potency GIPR; P1372 + tirzepatide; D 28 2-8°C [5]: 1.3 pM
CBA potency GIPR; P1372 + tirzepatide; D 28 RT [5]: 1.5 pM
CBA potency GIPR; P1372 + tirzepatide; D 56 2-8°C [5]: 1.9 pM
CBA potency GIPR; Tirzepatide alone; D 0 [5]: 1.5 pM
CBA potency GIPR; Tirzepatide alone; D 7 2-8°C [5]: 1.1 pM
CBA potency GIPR; Tirzepatide alone; D 7 RT [5]: 1.2 pM
CBA potency GIPR; Tirzepatide alone; D 14 2-8°C [5]: 0.84 pM
CBA potency GIPR; Tirzepatide alone; D 14 RT [5]: 0.82 pM
CBA potency GIPR; Tirzepatide alone; D 28 2-8°C [5]: 1.6 pM
CBA potency GIPR; Tirzepatide alone; D 28 RT [5]: 1.4 pM
CBA potency GIPR; Tirzepatide alone; D 56 2-8°C [5]: 1.9 pM
CBA potency GIPR; Tirzepatide alone; D 56 RT [5]: 2 pM
CBA potency GLP-1R; P1372 + tirzepatide; D 0 [2]: 9.3 pM
CBA potency GLP-1R; P1372 + tirzepatide; D 7 2-8°C [2]: 13 pM
CBA potency GLP-1R; P1372 + tirzepatide; D 7 RT [2]: 12 pM
CBA potency GLP-1R; P1372 + tirzepatide; D 14 RT [2]: 13 pM
CBA potency GLP-1R; P1372 + tirzepatide; D 28 2-8°C [2]: 14 pM
CBA potency GLP-1R; P1372 + tirzepatide; D 28 RT [2]: 13 pM
CBA potency GLP-1R; P1372 + tirzepatide; D 56 2-8°C [2]: 7.4 pM
CBA potency GLP-1R; P1372 + tirzepatide; D 56 RT [2]: 7.7 pM
CBA potency GLP-1R; Tirzepatide alone; D 0 [2]: 11 pM
CBA potency GLP-1R; Tirzepatide alone; D 7 2-8°C [2]: 11 pM
CBA potency GLP-1R; Tirzepatide alone; D 7 RT [2]: 13 pM
CBA potency GLP-1R; Tirzepatide alone; D 14 2-8°C [2]: 17 pM
CBA potency GLP-1R; Tirzepatide alone; D 14 RT [2]: 23 pM
CBA potency GLP-1R; Tirzepatide alone; D 28 2-8°C [2]: 14 pM
CBA potency GLP-1R; Tirzepatide alone; D 28 RT [2]: 12 pM
CBA potency GLP-1R; Tirzepatide alone; D 56 2-8°C [2]: 7 pM
CBA potency GLP-1R; Tirzepatide alone; D 56 RT [2]: 6.7 pM
CBA potency GIPR; P1372 + tirzepatide; D 0 [3]: 1.5 pM
CBA potency GIPR; P1372 + tirzepatide; D 7 2-8°C [3]: 1.7 pM
CBA potency GIPR; P1372 + tirzepatide; D 7 RT [3]: 2.1 pM
CBA potency GIPR; P1372 + tirzepatide; D 14 2-8°C [3]: 1.5 pM
CBA potency GIPR; P1372 + tirzepatide; D 14 RT [3]: 1.8 pM
CBA potency GIPR; P1372 + tirzepatide; D 28 2-8°C [3]: 2 pM
CBA potency GIPR; P1372 + tirzepatide; D 28 RT [3]: 2.8 pM
CBA potency GIPR; P1372 + tirzepatide; D 56 2-8°C [3]: 1.6 pM
CBA potency GIPR; P1372 + tirzepatide; D 56 RT [3]: 1.7 pM
CBA potency GIPR; Tirzepatide alone; D 0 [3]: 1.6 pM
CBA potency GIPR; Tirzepatide alone; D 7 2-8°C [3]: 2.8 pM
CBA potency GIPR; Tirzepatide alone; D 7 RT [3]: 2.8 pM
CBA potency GIPR; Tirzepatide alone; D 14 2-8°C [3]: 2.2 pM
CBA potency GIPR; Tirzepatide alone; D 14 RT [3]: 1.7 pM
CBA potency GIPR; Tirzepatide alone; D 28 2-8°C [3]: 2.2 pM
CBA potency GIPR; Tirzepatide alone; D 28 RT [3]: 2.1 pM
CBA potency GIPR; Tirzepatide alone; D 56 2-8°C [3]: 1.5 pM
CBA potency GIPR; Tirzepatide alone; D 56 RT [3]: 1.5 pM

Compound: tirzepatide [reference compound]
Body weight (% change from baseline) (DIO mice; DIO mice, 21 days s.c., P1307 20 mg/kg weekly, P1229 40 mg/kg twice weekly, semaglutide 40 μg/kg daily, tirzepatide 45 μg/kg daily, alone or combined): −26.8%
visceral, epididymal, pericardial, peri-renal, and retroperitoneal white adipose tissue weights (DIO mice; DIO mice, D21): significantly decreased all white adipose tissue weights
gastrocnemius and tibialis anterior weights (DIO mice; DIO mice, D21, P1229 with or without caloric restriction): no significant effect on muscle weights
Fat mass (% change from baseline) (DIO mice): −46.2%
Lean mass (% change from baseline) (DIO mice): −14.5%
Fat mass (% change from baseline) (DIO mice; listed as tirzepatide): −46.2%
Lean mass (% change from baseline) (DIO mice; listed as tirzepatide): −14.5%
